Here are results for 4 substances from patent publication US7109167.

Experiment [1] addresses endothelial cell receptor for TKPPR on human aortic endothelial cells (HAEC). Description: fluorescent beads on confluent HAEC, static, Experiment 1, image analysis.
Experiment [2] has the same target. Put plainly: competition on HAEC: VEGF121 100 ng/ml against 2% BRU-114 bubbles.
The target is the same in experiment [3]. Put plainly: competition on HAEC: VEGF121 200 ng/ml against 2% BRU-114 bubbles.
The target is the same in experiment [4]. Description: competition on HAEC: VEGF121 400 ng/ml against 2% BRU-114 bubbles.
The target is the same in experiment [5]. Put plainly: competition on HAEC: VEGF165 25 ng/ml against 5% BRU-114 bubbles.
For experiment [6] the target is unchanged. Put plainly: competition on HAEC: VEGF165 12.5 ng/ml against 5% BRU-114 bubbles.
The target is the same in experiment [7]. Put plainly: competition on HAEC: VEGF165 against 5% BRU-114 bubbles.
Experiment [8] has the same target. Put plainly: competition on HAEC: VEGF165 75 ng/ml against 5% BRU-114 bubbles.
The target is the same in experiment [9]. Put plainly: competition on HAEC: VEGF165 200 ng/ml against 2% BRU-114 bubbles.
For experiment [10] the target is unchanged. Description: competition on HAEC: VEGF165 100 ng/ml against 2% BRU-114 bubbles.
Experiment [11] shares this target. Description: competition on HAEC: VEGF165 6.25 ng/ml against 5% BRU-114 bubbles.
The target is the same in experiment [12]. Put plainly: competition on HAEC: VEGF165 25 ng/ml against 2% BRU-114 bubbles.
Experiment [13] shares this target. Description: competition on HAEC: VEGF165 50 ng/ml against 5% BRU-114 bubbles.
The target is the same in experiment [14]. Put plainly: competition on HAEC: KDR/Fc 1000 ng/ml against 5% BRU-114 bubbles.
Experiment [15] shares this target. Put plainly: competition on HAEC: KDR/Fc 2500 ng/ml against 5% BRU-114 bubbles.
For experiment [16] the target is unchanged. Description: competition on HAEC: KDR/Fc 500 ng/ml against 5% BRU-114 bubbles.
Experiment [17] shares this target. Description: competition on HAEC: KDR/Fc 125 ng/ml against 5% BRU-114 bubbles.
Experiment [18] shares this target. Put plainly: competition on HAEC: KDR/Fc 250 ng/ml against 5% BRU-114 bubbles.

Sequence of soluble human KDR/Fc chimera (R&D Systems) (P35968 20-764, change not shown): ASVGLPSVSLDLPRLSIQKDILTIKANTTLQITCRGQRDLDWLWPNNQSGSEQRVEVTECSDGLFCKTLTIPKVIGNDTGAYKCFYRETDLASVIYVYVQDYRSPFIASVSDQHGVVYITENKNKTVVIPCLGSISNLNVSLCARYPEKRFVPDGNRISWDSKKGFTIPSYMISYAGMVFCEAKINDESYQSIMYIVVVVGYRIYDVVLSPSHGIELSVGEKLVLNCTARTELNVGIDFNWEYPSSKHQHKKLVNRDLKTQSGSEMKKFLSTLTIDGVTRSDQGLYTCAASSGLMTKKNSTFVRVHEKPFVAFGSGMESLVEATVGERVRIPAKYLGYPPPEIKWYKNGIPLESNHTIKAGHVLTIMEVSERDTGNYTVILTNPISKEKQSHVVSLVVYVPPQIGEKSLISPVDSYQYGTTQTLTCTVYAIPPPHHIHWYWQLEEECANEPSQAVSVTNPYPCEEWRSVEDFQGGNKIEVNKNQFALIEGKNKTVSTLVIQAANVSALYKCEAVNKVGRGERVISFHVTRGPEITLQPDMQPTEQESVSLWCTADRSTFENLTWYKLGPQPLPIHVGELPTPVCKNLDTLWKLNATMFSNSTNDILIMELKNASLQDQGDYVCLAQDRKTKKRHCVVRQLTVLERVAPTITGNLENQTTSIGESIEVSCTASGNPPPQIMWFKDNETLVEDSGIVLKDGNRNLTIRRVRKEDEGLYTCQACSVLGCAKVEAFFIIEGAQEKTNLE

“BSA-conjugated fluorescent microspheres (from UniProt P02769 25-607)” registered an Integrated density of bound beads (arbitrary units) in experiment [1] of 1.61.

With “VEGF121 (from UniProt P15692 27-147) (ligand)”, the Bubbles Bound came to 878 bubbles in experiment [2], 849 bubbles in experiment [3] and 778 bubbles in experiment [4].

On to “VEGF165 (from UniProt P15692 27-191) (ligand)”, for which the Bubbles Bound in experiment [5] amounted to 342 bubbles; in [6], 599 bubbles; in [8], 190 bubbles; in experiment [9] it was 70 bubbles; in [10], 94 bubbles; in [11], 1180 bubbles. Further, the Bubbles Bound came out at 144 bubbles in experiment [12] and 226 bubbles in [13]. This substance showed an IC50 in experiment [7] of 0.0125 µg/mL.

For “soluble human KDR/Fc chimera (R&D Systems) (from UniProt P35968 20-764) (Fc fusion)”, the Bubbles Bound in experiment [14] is 75 bubbles; in [15], 84 bubbles; in experiment [16] it was 342 bubbles; in experiment [17], 1030 bubbles; in experiment [18], 786 bubbles.
